Measurements reported in US20050058639A1 (AstraZeneca / MedImmune, published 2005).

T1: human GRO/MGSA (human, UniProt P09341 35-107)
T1 construct: also called hGRO/MGSA; GRO-alpha
T1 sequence (looked up): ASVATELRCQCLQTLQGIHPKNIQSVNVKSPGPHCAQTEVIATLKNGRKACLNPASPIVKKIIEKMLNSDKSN

T2: human RANTES (human, UniProt P13501 24-91)
T2 construct: also called hRANTES
T2 sequence (looked up): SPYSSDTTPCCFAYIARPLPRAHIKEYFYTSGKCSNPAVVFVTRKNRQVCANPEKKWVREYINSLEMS

T3: human MIP-1-alpha (human, UniProt P10147 24-92, limits assumed)
T3 construct: also called hMIP-1-alpha
T3 sequence (looked up): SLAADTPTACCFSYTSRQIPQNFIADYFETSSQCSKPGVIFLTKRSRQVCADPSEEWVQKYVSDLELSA

T4: recombinant human MCP-2 (human, UniProt P80075 24-99)
T4 construct: also called rhMCP-2
T4 sequence (looked up): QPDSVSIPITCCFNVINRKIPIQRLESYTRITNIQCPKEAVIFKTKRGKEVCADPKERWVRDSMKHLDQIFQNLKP


Assays:
[1] = target: T5, human monocyte chemo-attractant protein-1 (MCP-1) (human, UniProt P13500 24-99); assay: cell-based or functional assay
T5 sequence (P13500 24-99): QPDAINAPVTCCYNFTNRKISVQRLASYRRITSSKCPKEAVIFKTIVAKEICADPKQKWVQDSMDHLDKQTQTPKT

[2] = target: T6, recombinant mouse JE/MCP-1 (mouse, UniProt P10148 24-148); assay: ELISA, coated antigen
T6 construct: also called rmJE/MCP-1
T6 sequence (P10148 24-148 limits assumed): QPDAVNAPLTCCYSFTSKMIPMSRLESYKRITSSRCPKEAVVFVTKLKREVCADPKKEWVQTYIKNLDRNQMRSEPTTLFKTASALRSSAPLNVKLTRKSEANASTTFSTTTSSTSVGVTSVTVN
Description: (§1) Determining cross-reactivity of anti-MCP-1 antibodies with other chemokines. ELISA plates (Fisher Cat. No. 12-565-136) were coated with 50 μl/well of MCP-1, MCP-2, MCP-3, MCP-4, RANTES, GRO-alpha, MIP-1 alpha, eotaxin, rat MCP-1 and mouse JE (2 μg/ml) in coating buffer (0.1 M carbonate buffer, pH 9.6, NaHCO₃ 8.4 g/L, then incubated at 4° C. overnight. After incubation, the plates were washed with washing buffer (0.05% Tween 20 in PBS) three times. 200 μL/well blocking buffer (0.5% BSA, 0.1% Tween 20, 0.01% Thimerosal in 1×PBS) were added and the plates incubated at room temperature for 1 hour. After incubation, the plates were washed with washing buffer three times. 50 μL/well of hybridoma supernatants, and positive and negative controls (positive control was anti-MCP-1 antibody purchased from R&D Sciences, and negative control was an antibody to Keyhole Limpet Hemocyanin produced at Abgenix) were added and the plates incubated at room temperature for 2 hours. After incubation, the plates were washed three times with washing buffer. […] After incubation, the plates were washed three times with washing buffer and 100 μL/well of TMB (BioFX Lab. Cat. #TMSK-0 100-01) was added and the plates allowed to develop for about 10 minutes.

[3] = target: T1, human GRO/MGSA; assay: ELISA, coated antigen
Description: as §1

[4] = target: rat MCP-1 (rat, UniProt P14844 24-148); assay: ELISA, coated antigen
Sequence of rat MCP-1 (P14844 24-148 limits assumed): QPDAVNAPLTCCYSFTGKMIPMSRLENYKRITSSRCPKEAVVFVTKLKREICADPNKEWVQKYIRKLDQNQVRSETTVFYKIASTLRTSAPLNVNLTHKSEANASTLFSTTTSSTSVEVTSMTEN
Description: as §1

[5] = target: T7, recombinant human MCP-3 (human, UniProt P80098 24-99); assay: ELISA, coated antigen
T7 construct: also called rhMCP-3
T7 sequence (P80098 24-99 limits assumed): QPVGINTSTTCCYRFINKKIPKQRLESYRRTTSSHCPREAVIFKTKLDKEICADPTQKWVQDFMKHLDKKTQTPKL
Description: as §1

[6] = target: T5, human monocyte chemo-attractant …; assay: ELISA, coated antigen
Description: as §1

[7] = target: T2, human RANTES; assay: ELISA, coated antigen
Description: as §1

[8] = target: T8, human eotaxin (human, UniProt P51671 24-97); assay: ELISA, coated antigen
T8 construct: also called hEotaxin
T8 sequence (P51671 24-97 limits assumed): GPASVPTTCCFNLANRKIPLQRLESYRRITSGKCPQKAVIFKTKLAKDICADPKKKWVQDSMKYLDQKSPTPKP
Description: as §1

[9] = target: T9, recombinant human MCP-4 (human, UniProt Q99616 24-98, limits assumed); assay: ELISA, coated antigen
T9 construct: also called rhMCP-4
T9 sequence (Q99616 24-98 limits assumed): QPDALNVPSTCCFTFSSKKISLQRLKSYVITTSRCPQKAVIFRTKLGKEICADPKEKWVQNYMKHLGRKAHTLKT
Description: as §1

[10] = target: T3, human MIP-1-alpha; assay: ELISA, coated antigen
Description: as §1

[11] = target: T4, recombinant human MCP-2; assay: ELISA, coated antigen
Description: as §1

[12] = target: T5, human monocyte chemo-attractant …; assay: ELISA, hybridoma supernatant on coated MCP-1
Description: Selection of candidate antibodies for ELISA. After 14 days of culture, hybridoma supernatants were screened for MCP-1-specific monoclonal antibodies. The ELISA plates (Fisher, Cat. No. 12-565-136) were coated with 50 μl/well of MCP-1 (2 μg/mL) in Coating Buffer (0.1 M Carbonate Buffer, pH 9.6, NaHCO₃8.4 g/L), then incubated at 4° C. overnight. After incubation, the plates were washed with Washing Buffer (0.05% Tween 20 in PBS) three times. 200 μl/well Blocking Buffer (0.5% BSA, 0.1% Tween 20, 0.01% Thimerosal in 1× PBS) were added and the plates incubated at room temperature for 1 hour. After incubation, the plates were washed with Washing Buffer three times. 50 μL/well of hybridoma supernatants, and positive and negative controls were added and the plates incubated at room temperature for 2 hours.
The positive control used throughout was XMG2 MCP-1 Group 1, footpad N160-7 and the negative control was XMG2 KLH Group 1, footpad L627-6. After incubation, the plates were washed three times with Washing Buffer. […] In the secondary screen, three sets of samples (positives in first screening) were screened, one set for hIgG detection, one set for hKappa detection, and one set for hlambda detection. After incubation, the plates were washed three times with Washing Buffer. 100 μL/well of TMB (BioFX Lab. Cat. #TMSK-0100-01) were added and the plates allowed to develop for about 10 minutes (until negative control wells barely started to show color), then 50 μL/well stop solution (TMB Stop Solution (BioFX Lab. Cat. #STPR-0100-01) were added and the plates read on an ELISA plate reader at wavelength 450 nm. The OD readings from the positive wells are presented in Table 9.

| Binder | IC50 Ca++ Flux [1] | IC50 Chemotaxis [1] | ELISA OD [2] | ELISA OD [3] | ELISA OD [4] | ELISA OD [5] | ELISA OD [6] | ELISA OD [7] | ELISA OD [8] | ELISA OD [9] | ELISA OD [10] | ELISA OD [11] | ELISA OD-MCP-1 [12] |
| --- | --- | --- | --- | --- | --- | --- | --- | --- | --- | --- | --- | --- | --- |
| anti-MCP-1 mAb 1.6.1 (antibody, V domains shown) VH: QVQLVQSGAEVKKPGASVKVSCKVSGYTLTELSMHWVRQAPGKGLEWMGGFDPEDGETIYAQKFQGRVTMTEDTSTDTAYMELSSLRSEDTAVYYCATWYSGIYLAFDIWGQGTMVTVSS VL: EIVLTQSPDFQSVTPKEKVTITCRASQSIGSSLHWYQQKPDQSPKLLIKYASQSFSGVPSRFSGSGSGTDFTLTINSLEAEDAATYYCHQSSSLPHTFGGGTKVEIKR | 1 µg/mL | 12 µg/mL | 0.042 OD450 | 0.046 OD450 | 0.062 OD450 | 0.046 OD450 | 0.375 OD450 | 0.046 OD450 | 0.042 OD450 | 0.044 OD450 | 0.046 OD450 | 0.042 OD450 | 3.92 OD450 |
| anti-MCP-1 mAb 3.2 (antibody, V domains shown, also called 3.2 (neat)) VH: QVQLVQSGAEVKKPGASVKVSCKVSGYTLSELSMHWVRQAPGKGLEWMGGFDPEDGEIIHAQKFQGRVTMTEDTSTDTAYMELSSLRSEDTAVYYCATGDFWSGYYLDWWGQGTLVTVSS VL: EIVMMQSPATLSVSPGERATLSCRASQSVNSNLAWYQQKPGQAPRLLINGASTRATGIPARFSGSGSGTEFTLTISSLQSEDFAIYYCQQYNDWPTFTFGGGTKVEINR |  |  | 0.059 OD450 | 0.042 OD450 | 0.07 OD450 | 0.449 OD450 | 0.235 OD450 | 0.043 OD450 | 0.194 OD450 | 0.041 OD450 | 0.041 OD450 | 0.535 OD450 | 3.96 OD450 |
| anti-MCP-1 mAb 1.1.1 (antibody, human IgG2, kappa, V domains shown) VH: QVQLVQSGAEVKKPGASVKVSCKVSGYTLTELSMHWVRQAPGNGLEWMGGFDPEDGETIYAQRFQGRVVMTEDPSTDTAYMELSSLRSEDTAVYYCATNEFWSGYFDYWGQGTLVTVSS VL: DIVMTQSPDSLAMSLGERATINCKSSQSVLYSSNNKNYLVWYQQKPGQPPKLLIYWASIRESGVPDRFSSSGSETDFTLTISSLQAEDVAVYYCQQYFSSPWTFGQGTKVEIKR | 0.24 µg/mL | 0.27 µg/mL | 0.045 OD450 | 0.047 OD450 | 0.051 OD450 | 0.064 OD450 | 0.944 OD450 | 0.044 OD450 | 0.042 OD450 | 0.052 OD450 | 0.044 OD450 | 0.051 OD450 | 3.64 OD450 |
| anti-MCP-1 mAb 1.13.1 (antibody, V domains shown) VH: QVQLVQSGAEVKKPGASVKVSCKVSGHTLTELSMHWVRQAPGKGLEWMGGFDPEDDETIYAQKFQDRVTMTEDTSTDTAYMELSSLRSEDTAVYYCATNDFWSGYFDCWGQGTLVTVSS VL: DIVLTQSPDSLAVCLGERATINCKSSQSVLYSPNNKNFLVWYQQRPGQPPKLLIYWASTRESGVPDRFSGSGSGTDFTLTISSLQAEDVAVYYCQQYYSSPWTFGQGTKVEIKR | 0.11 µg/mL | 0.5 µg/mL | 0.043 OD450 | 0.046 OD450 | 0.06 OD450 | 0.047 OD450 | 1.16 OD450 | 0.046 OD450 | 0.044 OD450 | 0.045 OD450 | 0.042 OD450 | 0.046 OD450 | 4 OD450 |
